Laboratory results taken from patent US11692007B2, “Amino deprotection using 3-(diethylamino)propylamine” (priority 2021, dated 2023).
Read-outs that look alike come from different tables or passages of the source. Marks after values point to notes of the source that are not given here. Non-standard residues stand in square brackets, D forms with d. Residues, ends and D or L forms follow the SMILES beside them. *: point of attachment. dPhe(4-NHCONH2) = NC(=O)Nc1ccc(C[C@@H](N)C(=O)O)cc1; Dihydroorotyl(S) = O=C1C[C@@H](C(=O)*)NC(=O)N1; dPhe(4-Cl) = N[C@H](Cc1ccc(Cl)cc1)C(=O)O; Phe(4-NH2) = Nc1ccc(C[C@H](N)C(=O)O)cc1; d2Nal = N[C@H](Cc1ccc2ccccc2c1)C(=O)O; Lys(iPr) = CC(C)NCCCC[C@H](N)C(=O)O; d3Pal = N[C@H](Cc1cccnc1)C(=O)O

What was measured:
[1] = tested on: rat; details: in vivo; cited from earlier work
[2] = for Hydantoin impurity (VI) at RRT 1.03 / purity (HPLC) / specified impurity RRT 0.85 (X, unknown): RT; for Hydantoin impurity (VI) at RRT 1.03: at both t0 and t3 (24 h); for specified impurity RRT 0.85 (X, unknown): not present at t0
Procedure: Degarelix was kept in a solution of 10% DEAPA in DMF for 24 h to simulate conditions corresponding to those used for removal of Fmoc group during full SPPS. Samples were analyzed by HPLC at four checkpoints up to 24 h and the four HPLC profiles obtained were compared as shown in FIG. 3 and FIG. 4 (for detailed experimental procedure, see Example 7).
Example 7: HPLC analyses were performed on Agilent 1260 Infinity II system, using columns Waters Cortecs C18 2.7 μm, 4.6×150 mm; temperature: 30° C.; injection volume: 10 μL, UV: 245 nm; pH 5.5 Phosphate Buffer: 25 mM Potassium Phosphate to pH 5.5; pH 3.5 Phosphate Buffer: 25 mM Potassium Phosphate to pH 3.5; mobile phases: 75% pH 5.5 Buffer: 25% CH3CN (A); 65% pH 3.5 Buffer: 35% CH3CN (B); flow: 1.0 mL/min, sample concentration 0.5 mg/ml; gradient: 0-5 min 0% B, 5-45 min […], 45-46 min 100-0% B, 46-60 min 0% B.
The stability at RT was followed for 24 h at four check points, i.e. t0, 1 h (t1), 4 h (t2) and 24 h (t3).
Superimposed HPLC profiles are shown in FIG. 3 (Test 1) and FIG. 4 (Test 2).

[3] = Procedure: A sample of Degarelix, as a lyophilized powder of about 99% of purity, was dissolved at a concentration of 17 g/L in DMF with 10% of piperidine, TMG, TBA or DEAPA. The stability at RT was measured by HPLC at t=0 (t0), t=8 hr (t1), and t=24 hr (t3) using an Agilent 1260 Infinity II system, using a column Waters Xterra Shield RP18, 3.5 μm, 4.6×150 mm; temperature: 25° C.; sample concentration 0.5 mg/mL; injection volume: 10 μL; flow: 0.7 mL/min; buffer: 65% 40 mM ammonium acetate, pH 10:35% ACN; elution: isocratic, 0-30 min 100% buffer; detection: UV 245 nm.
[4] = tested on: mice; details: acute oral toxicity; cited from earlier work
[5] = tested on: rats; details: acute oral toxicity; cited from earlier work
[6] = tested on: rabbits; details: acute oral toxicity; cited from earlier work
[7] = Stress stability test of resin-bound H-Ala-Lys-Asp-Gly-Tyr-Ile-OH with piperidine, DEAPA, TMG and TBA in DMF or NBP (aspartimide formation, HPLC); type: physicochemical
Procedure: A stress test was then performed whereby the model peptide was submitted to basic conditions to simulate repeated alpha-amino deprotection cycles. Resin-bound H-Ala-Lys-Asp-Gly-Tyr-Ile-OH (still bearing side-chain protections) was treated in parallel with 20% piperidine, 10% DEAPA, 5% TMG or 20% TBA solutions, in DMF or NBP, for 4 h at RT.
As shown in Scheme 2 above, the formation of the aspartimide side-product may be followed by nucleophilic attack onto the aspartimide ring with formation of further by-products, like amine-adducts (amine-mediated ring-opening) and alpha- and beta-peptides (water-mediated ring-opening).
The hexapeptide samples obtained after such treatments with the Fmoc cleavage solutions were analyzed by HPLC and the results are shown in Table 1 (for detailed experimental procedure, see Example 6).
In Table 1, Δ Asp indicates the amount of additional overall aspartimide impurities (comprising piperidides by-products) resulting from the stress test relative to the initial aspartimide amount (2.6%).
Examples 1-6: HPLC-MS analyses were performed on Agilent 1260 Infinity II system coupled to an electrospray ionization mass spectrometer (positive-ion mode, m/z=100-1500, fragmentor 30 V), using columns Agilent Zorbax-SB-C18 5 μm, 250×4.6 mm or Phenomenex Luna C18 5 μm, 250×4.6 mm; temperature: 25° C.; injection volume: 10 μL, UV: 220 nm, mobile phases: H2O+0.08% TFA (A) and CH3CN+0.08% TFA (B), flow: 0.5 mL/min or 1.0 mL/min.
100 mg of dry resin H-Ala-Lys-Asp-Gly-Tyr-Ile-Trt-PS (prepared as described in Example 2) were swelled in 2 mL of DMF or NBP for 30 minutes. The resin was filtered and a 2 mL solution of 10% DEAPA (or 20% piperidine, 5% TMG, 20% TBA) in DMF or NBP was added to the resin and stirred for 4 hours at RT. The resin was filtered, washed with DMF or NBP (3×2 mL) and with DCM (3×2 mL). Dry peptide resin was suspended in 3 mL of the mixture TFA/TIS/H2O (90/5/5 v/v/v) and stirred for 2 h. The resin was filtered off and diisopropylether (10 mL) cooled to 4° C. was added to the solution. The peptide was filtered and dried in vacuo to obtain crude H-Ala-Lys-Asp-Gly-Tyr-Ile-OH (II) and aspartimide impurity (III) in different ratios according to the used conditions.
Table 1 in the description lists the results. ΔAsp indicates the difference between the aspartimide amount formed after stress tests (including piperidides if present) and that arising from the hexapeptide synthesis (2.6%, see Example 2).
HPLC-MS analysis gradient: 0-30 min 10-40% B; flow: 0.5 mL/min.

[8] = Test 1, about 170 g/L in DMF with 10% DEAPA, t3 (24 h)
[9] = Test 2, about 17 g/L in DMF with 10% DEAPA, t3 (24 h)
[10] = 24 hr at RT, 10% DEAPA in DMF, 17 g/L
[11] = 24 hr at RT, 10% TBA in DMF, 17 g/L
[12] = 24 hr at RT, 10% TMG in DMF, 17 g/L
[13] = 24 hr at RT, 10% piperidine in DMF, 17 g/L
[14] = duration 0, base solution none, 17 g/L in DMF
[15] = 10% DEAPA in DMF, 4 h at RT, resin-bound
[16] = 10% DEAPA in NBP, 4 h at RT, resin-bound
[17] = 20% TBA in DMF, 4 h at RT, resin-bound
[18] = 20% TBA in NBP, 4 h at RT, resin-bound
[19] = 20% piperidine in DMF, 4 h at RT, resin-bound
[20] = 20% piperidine in NBP, 4 h at RT, resin-bound
[21] = starting point, after synthesis in DMF with 20% pip, before stress test

CCN(CC)CCCN [DEAPA, 3-(diethylamino)propylamine]
LD50 [1]: 830 mg/kg

CC(=O)N[C@H](Cc1ccc2ccccc2c1)C(=O)N[C@H](Cc1ccc(Cl)cc1)C(=O)N[C@H](Cc1cccnc1)C(=O)N[C@@H](CO)C(=O)N[C@@H](Cc1ccc(NC(=O)[C@@H]2CC(=O)NC(=O)N2)cc1)C(=O)N[C@H](Cc1ccc(NC(N)=O)cc1)C(=O)N[C@@H](CC(C)C)C(=O)N[C@@H](CCCCNC(C)C)C(=O)N1CCC[C@H]1C(=O)N[C@H](C)C(N)=O [Degarelix, Ac-D-Nal-D-Cpa-D-Pal-Ser-Aph(Hor)-D-Aph(Cbm)-Leu-Lys(iPr)-Pro-D-Ala-NH2] (Ac-[d2Nal][dPhe(4-Cl)][d3Pal]S[Phe(4-NH2)](Dihydroorotyl(S))[dPhe(4-NHCONH2)]L[Lys(iPr)]P[dA]-NH2)
degradation of degarelix ([2]; 10% DEAPA in DMF, up to 24 h): No significant degradation
increase of hydantoin impurity ([2]; 10% DEAPA in DMF, up to 24 h): no increase
Hydantoin impurity (VI) at RRT 1.03 ([2]; Test 1, about 170 g/L in DMF with 10% DEAPA): 0.10%
purity (HPLC) ([2]; Test 1, about 170 g/L in DMF with 10% DEAPA, t0): 99.17%
purity (HPLC) [2, 8]: 99.10%
specified impurity RRT 0.85 (X, unknown) [2, 8]: 0.06%
Hydantoin impurity (VI) at RRT 1.03 ([2]; Test 2, about 17 g/L in DMF with 10% DEAPA): 0.09%
purity (HPLC) ([2]; Test 2, about 17 g/L in DMF with 10% DEAPA, t0): 99.18%
purity (HPLC) [2, 9]: 99.10%
specified impurity RRT 0.85 (X, unknown) [2, 9]: 0.04%
Degarelix % [3, 10]: 99.97%
Hydantoin VI % [3, 10]: 0.03%
Degarelix % [3, 11]: 99.96%
Hydantoin VI % [3, 11]: 0.04%
Degarelix % [3, 12]: 98.7%
Hydantoin VI % [3, 12]: 1.3%
Degarelix % [3, 13]: 99.96%
Hydantoin VI % [3, 13]: 0.04%
amount of hydantoin impurity (VI) ([3]; after 24-hours treatment with DEAPA (10% in DMF)): unchanged
Degarelix % [3, 14]: 99.97%
Hydantoin VI % [3, 14]: 0.03%

C1CCNCC1 [piperidine]
LD50 [4]: 30 mg/kg
LD50 [5]: 400 mg/kg
LD50 [6]: 145 mg/kg

H-Ala-Lys-Asp-Gly-Tyr-Ile-OH (H-AKDGYI-OH) [III]
Aspartimide (IV) (A %) ([7]; 5% TMG in DMF, 4 h at RT, resin-bound): 85.5 A %
III (A %) ([7]; 5% TMG in DMF, 4 h at RT, resin-bound, sum of alpha- and beta-peptide): 14.5^a A %
Δ Asp (A %) ([7]; 5% TMG in DMF, 4 h at RT, relative to initial 2.6%): 82.9 A %
Aspartimide (IV) (A %) ([7]; 5% TMG in NBP, 4 h at RT, resin-bound): 72.9 A %
III (A %) ([7]; 5% TMG in NBP, 4 h at RT, resin-bound, sum of alpha- and beta-peptide): 27.1^a A %
Δ Asp (A %) ([7]; 5% TMG in NBP, 4 h at RT, relative to initial 2.6%): 70.3 A %
Aspartimide (IV) (A %) [7, 15]: 10.1 A %
III (A %) [7, 15]: 89.9 A %
Δ Asp (A %) ([7]; 10% DEAPA in DMF, 4 h at RT, relative to initial 2.6%): 7.5 A %
Aspartimide (IV) (A %) [7, 16]: 4.2 A %
III (A %) [7, 16]: 95.8 A %
Δ Asp (A %) ([7]; 10% DEAPA in NBP, 4 h at RT, relative to initial 2.6%): 1.6 A %
Aspartimide (IV) (A %) [7, 17]: 29.3 A %
III (A %) [7, 17]: 70.7 A %
Δ Asp (A %) ([7]; 20% TBA in DMF, 4 h at RT, relative to initial 2.6%): 26.7 A %
Aspartimide (IV) (A %) [7, 18]: 20.0 A %
III (A %) [7, 18]: 80.0 A %
Δ Asp (A %) ([7]; 20% TBA in NBP, 4 h at RT, relative to initial 2.6%): 17.4 A %
Aspartimide (IV) (A %) [7, 19]: 7.2 A %
III (A %) [7, 19]: 86.5 A %
Piperidides (V) (A %) [7, 19]: 6.3 A %
Δ Asp (A %) ([7]; 20% piperidine in DMF, 4 h at RT, additional aspartimide impurities incl. piperidides relative to initial 2.6%): 10.9 A %
Aspartimide (IV) (A %) [7, 20]: 7.1 A %
III (A %) [7, 20]: 90.0 A %
Piperidides (V) (A %) [7, 20]: 2.9 A %
Δ Asp (A %) ([7]; 20% piperidine in NBP, 4 h at RT, incl. piperidides, relative to initial 2.6%): 7.4 A %
Aspartimide (IV) (A %) [7, 21]: 2.6 A %
III (A %) [7, 21]: 97.4 A %
